Legend:
[1] = biological target: T1, human TREM2 (triggering receptor expressed on myeloid cells 2) (human) (UniProt Q9NZC2); assay: 2nd screen, 10 nM Ab
T1 sequence (looked up): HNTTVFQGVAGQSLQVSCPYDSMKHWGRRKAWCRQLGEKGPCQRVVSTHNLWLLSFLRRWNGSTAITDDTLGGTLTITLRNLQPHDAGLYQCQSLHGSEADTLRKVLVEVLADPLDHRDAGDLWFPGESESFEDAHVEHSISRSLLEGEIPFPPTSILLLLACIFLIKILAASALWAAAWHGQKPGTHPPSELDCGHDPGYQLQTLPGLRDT

[2] = biological target: T1, human TREM2 (triggering receptor expressed on myeloid cells 2) (human); assay: 2nd screen, 2 nM Ab
[3] = biological target: T1, human TREM2 (triggering receptor expressed on myeloid cells 2) (human); assay: 1st screen, 10 nM Ab

| Binding Signal (fold over 6E7 parental antibody) [1] [fold] | Binding Signal (fold over 6E7 parental antibody) [2] [fold] | Binding Signal (fold over 6E7 parental antibody) [3] [fold] | Binder |
| --- | --- | --- | --- |
| 3.49 | 3.69 | 3.46 | 6E7 antibody affinity modulation variant V37 (antibody, V domains shown) VH: EVQLVQSGAEVKKPGESLKISCKGSGYSHTSYWIAWVRQMPGKGLEWMGIIYPGDSDTRYSPSFAGQVTISADKSISTAYLQWSSLKASDTAMYFCARSRTFYYDSSDYFDYWGQGTLVTVSS VL: DIQMTQSPSSVSASVGDRVTITCRASQGISSWLAWYQQKPGKAPKLLIYAASSLQWGVPSRFSGSGSGTDFTLTISSLQPEDFATYFCQQADSYPRTFGQGTKLEIK |
| 5.22 | 3.63 | 5.08 | 6E7 antibody affinity modulation variant V61 (antibody, V domains shown) VH: EVQLVQSGAEVKKPGESLKISCKGSGYSFSSYWIAWVRQMPGKGLEWMGIIYPGDSDTRYNPSFQGQVTISADKSISTAYLQWSSLKASDTAMYFCARGRTFYYDSSDYFDYWGQGTLVTVSS VL: DIQMTQSPSSVSASVGDRVTITCRASQGISSWLAWYQQKPGKAPKLLIYAASSLVNGVPSRFSGSGSGTDFTLTISSLQPEDFATYFCQQADSLPRTFGQGTKLEIK |
| 4.36 | 3.44 | 4.34 | 6E7 antibody affinity modulation variant V38 (antibody, V domains shown) VH: EVQLVQSGAEVKKPGESLKISCKGSGYSFGSYWIAWVRQMPGKGLEWMGIIYPGDSDVRYSPSFQGQVTISADKSISTAYLQWSSLKASDTAMYFCARQRTFYYDSSDYFDYWGQGTLVTVSS VL: DIQMTQSPSSVSASVGDRVTITCRASQGISSWLAWYQQKPGKAPKLLIYAASSRQNGVPSRFSGSGSGTDFTLTISSLQPEDFATYFCQQADSHPRTFGQGTKLEIK |
| 3.63 | 3.35 | 3.26 | 6E7 antibody affinity modulation variant V60 (antibody, V domains shown) VH: EVQLVQSGAEVKKPGESLKISCKGSGYHFTSYWIAWVRQMPGKGLEWMGIIYPGDSDVRYSPSFQGQVTISADKSISTAYLQWSSLKASDTAMYFCARQRTFYYDSSDYSDYWGQGTLVTVSS VL: DIQMTQSPSSVSASVGDRVTITCRASQGISSWLAWYQQKPGKAPKLLIYAASSLQRGVPSRFSGSGSGTDFTLTISSLQPEDFATYFCGQADSFPRTFGQGTKLEIK |
| 1.17 | 0.66 | 1.25 | 6E7 antibody affinity modulation variant V53 (antibody, V domains shown) VH: EVQLVQSGAEVKKPGESLKISCKGSGYSFTSYWIAWVRQMPGKGLEWMGIIYPGDSDTRYSPHFQGQVTISADKSISTAYLQWSSLKASDTAMYFCARQRTFYYDSSDYFDYWGQGTLVTVSS VL: DIQMTQSPSSVSASVGDRVTITCRASQGISSWLAWYQQKPGKAPKLLIYAASSLQNGVPSRFSGSGSGTDFTLTISSLQPEDFATYFCQQADSFPRTFGQGTKLEIK |
| 1.72 | 0.58 | 1.74 | 6E7 antibody affinity modulation variant V41 (antibody, V domains shown) VH: EVQLVQSGAEVKKPGESLKISCKGSGYSFTSYWIAWVRQMPGKGLEWMGTIYPGDSDTRYSPSFQGQVTISADKSISTAYLQWSSLKASDTAMYFCARQRTFYYDSSDYFDYWGQGTLVTVSS VL: DIQMTQSPSSVSASVGDRVTITCRASQGISSWLAWYQQKPGKAPKLLIYAASSLQNGVPSRFSGSGSGTDFTLTISSLQPEDFATYFCQQADSFPRTFGQGTKLEIK |
| 5.81 | 5.11 | 6.15 | 6E7 antibody affinity modulation variant V39 (antibody, V domains shown) VH: EVQLVQSGAEVKKPGESLKISCKGSGYSFGSYWIAWVRQMPGKGLEWMGIIYPGDSDTRYNPSFQGQVTISADKSISTAYLQWSSLKASDTAMYFCARGRTFYYDSSDYFDYWGQGTLVTVSS VL: DIQMTQSPSSVSASVGDRVTITCRASQGISSWLAWYQQKPGKAPKLLIYAASSLVNGVPSRFSGSGSGTDFTLTISSLQPEDFATYFCQQADSSPRTFGQGTKLEIK |
| 6.58 | 5.02 | 6.51 | 6E7 antibody affinity modulation variant V49 (antibody, V domains shown) VH: EVQLVQSGAEVKKPGESLKISCKGSGYSFNSYWIAWVRQMPGKGLEWMGTIYPGDSDTRLSPSFQGQVTISADKSISTAYLQWSSLKASDTAMYFCARSRTFYYDSSDYFDYWGQGTLVTVSS VL: DIQMTQSPSSVSASVGDRVTITCRASQGISSWLAWYQQKPGKAPKLLIYAASSRQNGVPSRFSGSGSGTDFTLTISSLQPEDFATYFCQQADSYPRTFGQGTKLEIK |
| 4.16 | 3.41 | 4.48 | 6E7 antibody affinity modulation variant V40 (antibody, V domains shown) VH: EVQLVQSGAEVKKPGESLKISCKGSGYSFGSYWIAWVRQMPGKGLEWMGIIYPGDSDVRYSPSFQGQVTISADKSISTAYLQWSSLKASDTAMYFCARQRTFYYDSSDYSDYWGQGTLVTVSS VL: DIQMTQSPSSVSASVGDRVTITCRASQGISSWLAWYQQKPGKAPKLLIYAASSLQLGVPSRFSGSGSGTDFTLTISSLQPEDFATYFCQQADRFPRTFGQGTKLEIK |
| 4.16 | 3.39 | 4.1 | 6E7 antibody affinity modulation variant V50 (antibody, V domains shown) VH: EVQLVQSGAEVKKPGESLKISCKGSGYSFGSYWIAWVRQMPGKGLEWMGVIYPGDSDTRYSPSFQGQVTISADKSISTAYLQWSSLKASDTAMYFCARQRTFYYDSSDYLDYWGQGTLVTVSS VL: DIQMTQSPSSVSASVGDRVTITCRASQGISSWLAWYQQKPGKAPKLLIYAASSRQNGVPSRFSGSGSGTDFTLTISSLQPEDFATYFCQQADSLPRTFGQGTKLEIK |
| 2.54 | 2.3 | 2.42 | 6E7 antibody affinity modulation variant V48 (antibody, V domains shown) VH: EVQLVQSGAEVKKPGESLKISCKGSGYSFGSYWIAWVRQMPGKGLEWMGIIYPGDSDVRYSPSFQGQVTISADKSISTAYLQWSSLKASDTAMYFCARMRTFYYDSSDYFDYWGQGTLVTVSS VL: DIQMTQSPSSVSASVGDRVTITCRASQGISSWLAWYQQKPGKAPKLLIYAASSLQTGVPSRFSGSGSGTDFTLTISSLQPEDFATYFCQQADSLPRTFGQGTKLEIK |
| 1.92 | 1.29 | 1.68 | 6E7 antibody affinity modulation variant V1 (antibody, V domains shown) VH: EVQLVQSGAEVKKPGESLKISCKGSGYSFTSSWIAWVRQMPGKGLEWMGIIYPGDSDTRYSPSFQGQVTISADKSISTAYLQWSSLKASDTAMYFCARSRTFYYDSSDYFDYWGQGTLVTVSS VL: DIQMTQSPSSVSASVGDRVTITCRASQGISSWLAWYQQKPGKAPKLLIYAASSLTNGVPSRFSGSGSGTDFTLTISSLQPEDFATYFCQQADSYPRTFGQGTKLEIK |
| 3.18 | 1.83 | 2.81 | 6E7 antibody affinity modulation variant V51 (antibody, V domains shown) VH: EVQLVQSGAEVKKPGESLKISCKGSGYSFTSYWIAWVRQMPGKGLEWMGIIYPGDSDVRYSPSFQGQVTISADKSISTAYLQWSSLKASDTAMYFCARGRTFYYDSSDYFDNWGQGTLVTVSS VL: DIQMTQSPSSVSASVGDRVTITCRASQGISSWLAWYQQKPGKAPKLLIYAASSRQNGVPSRFSGSGSGTDFTLTISSLQPEDFATYFCQQADSFPRTFGQGTKLEIK |
